Results taken from patent publication US20230399403A1 (BIONTECH, published 2023).
Where two headings read alike, the source gives them in different places.

Legend:
[1] = molecular target: T1, full-length human PD-1 expressed on cells (human, UniProt Q15116 25-288); test: cell binding, HEK-293 cells expressing full-length human PD-1, CellInsight CX5 imaging
T1 construct: also called HEK-293 cells ectopically expressing full-length human-PD1 (BPS Biosciences)
Description: (§1) Binding of chimeric and humanized anti-PD-1 antibodies to cell surface expressed hPD-1 was analyzed using HEK-293 cells ectopically expressing full-length human-PD1 (BPS Biosciences; Cat. No. 60680). Cell cultures were grown in MEM containing 10% FCS, ix MEM NEAA, 1 mM Na pyruvate and 100 μg/mL Hygromycin B. Hygromycin B was omitted when cells were plated for testing antibody binding. 1,000 cells in 20 μL medium were seeded per well in black 384-well cell-culture treated plates with clear bottom and were incubated for 2 hours at 37° C. and 5% CO₂. Anti-PD-1 antibodies were added in 5 μL medium to final concentrations ranging from 1,000 to 0.06 ng/mL or 620 to 0.45 ng/mL. […] After an 18 hours incubation at 37° C. and 5% CO₂, plates were washed once with 25 μL PBS, 0.05% Tween 20 (cell wash buffer) and Alexa-Fluor-488-conjugated AffiniPure goat-anti-human-IgG F(ab′)₂ fragment (Vendor) was added at a concentration of 0.8 μg/mL in 20 μL medium. Plates were incubated for 4 hours at 37° C. and 5% CO₂ in the dark, washed once with 25 μL cell wash buffer and incubated for 10 minutes with 20 μL medium containing 5 μg/ml Hoechst (Invitrogen). Cell-associated immunofluorescent signals were recorded using a CellInsight CX5 high content imager device (Thermo Fisher). Data was fitted with a 4-parameter logistic model and EC50 values calculated using GraphPad Prism 8.4.3.

[2] = molecular target: T2, Recombinant human PD-1 human-FC Chimera (R&D Systems) (human, UniProt Q15116 25-170); test: ELISA, coated recombinant human PD-1 human-Fc chimera
T2 construct: Bought construct; also called recombinant human-PD-1 extracellular domain; hPD-1 (ELISA); not shown: human Fc part of the bought chimera
Description: (§2) The binding potency of chimeric and humanized anti-PD-1 antibodies to recombinant human-PD-1 extracellular domain was determined by ELISA. Recombinant human PD-1 human-FC Chimera (R&D Systems) was coated on 384-well MaxiSorp™ flat bottom plates (Nunc) at a concentration of 0.625 μg/mL in PBS (Vendor) for 60 minutes at room temperature. Coated plates were washed three times with PBS, 0.1% Tween (PBS-T), blocked by incubation with PBS, 2% BSA, 0.05% Tween for 60 minutes at room temperature, and washed for an additional three times with PBS-T. Anti-PD-1-antibodies were added in PBS, 0.5% BSA, 0.05% Tween (ELISA buffer) in concentrations ranging from 1,000 to 0.06 ng/mL or 2,500 to 0.15 ng/mL and the plate was incubated for 60 minutes at room temperature. […] After 3 washes with PBS-T, horseradish peroxidase coupled goat-anti-human-IgG (Fab′)₂ fragment (AbD Serotec; Cat. No. STAR126P) was added in ELISA buffer at a dilution of 1:5,000. The plate was incubated for 60 minutes at room temperature, and washed 6 times with PBS-T before TMB solution (Thermo Fisher Scientific) was added. After 10 minutes HCl was added and the absorbance at wavelengths of 450 and 620 nm recorded using a Tecan Infinite M1000 reader. Data was fitted with a 4-parameter logistic model and EC50 values calculated using GraphPad Prism 8.4.3 (GraphPad Software, San Diego, CA, USA).

[3] = molecular target: T1, full-length human PD-1 expressed on …; test: cell-based or functional assay
[4] = molecular target: T1, full-length human PD-1 expressed on …; test: cell binding, HEK-293 cells expressing full-length human PD-1, CellInsight CX5 imaging; remark: listed apart in the source
Description: as §1

[5] = molecular target: T1, full-length human PD-1 expressed on …; test: cell-based or functional assay; remark: listed apart in the source
[6] = molecular target: T2, Recombinant human PD-1 human-FC Chimera …; test: ELISA, coated recombinant human PD-1 human-Fc chimera; remark: listed apart in the source
Description: as §2

[7] = molecular target: T1, full-length human PD-1 expressed on …; test: flow cytometry, K562 cells electroporated with full-length human PD-1 mRNA, dilutions of RiboMab-containing supernatant
Description: 20×10⁶ cells K562 cells growing in log-phase were used for electroporation of full-length human PD-1. Cells in 250 μL X-Vivo 15 medium (LONZA Technologies, cat. no. BE02-060F) were combined in 4 mm gap cuvettes with 10 μg human PD-1-encoding IVT-mRNA. Cells were immediately electroporated with a BTX ECM830 (BTX Harvard Apparatus) with the following setting: 200 V, 3 pulses, 8 ms.
Binding of RiboMabs to K562 cells expressing PD-1 was analyzed by flow cytometry. […] Cells were washed twice with FACS buffer, re-suspended in 60 μL FACS buffer and analyzed on a BD FACSCanto™ II flow cytometer (BD Biosciences). Binding curves were analyzed by non-linear regression (log(agonist) vs. response—variable slope (four parameters)) using GraphPad Prism V9.1.0 software.

T2 sequence (Q15116 25-170, change not shown): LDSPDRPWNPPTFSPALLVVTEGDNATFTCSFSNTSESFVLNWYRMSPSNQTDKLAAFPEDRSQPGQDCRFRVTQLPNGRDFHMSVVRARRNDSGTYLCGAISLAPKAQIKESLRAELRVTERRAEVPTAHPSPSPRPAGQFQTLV
T1 sequence (Q15116 25-288 limits assumed): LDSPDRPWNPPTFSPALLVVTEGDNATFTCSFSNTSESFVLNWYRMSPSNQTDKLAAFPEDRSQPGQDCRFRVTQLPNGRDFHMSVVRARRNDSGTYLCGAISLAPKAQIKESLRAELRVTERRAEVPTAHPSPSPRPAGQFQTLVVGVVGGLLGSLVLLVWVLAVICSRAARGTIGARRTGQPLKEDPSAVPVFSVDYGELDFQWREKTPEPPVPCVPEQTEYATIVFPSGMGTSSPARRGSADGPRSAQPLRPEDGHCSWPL

Binder | EC50 [1] [ng/mL] | EC50 [2] [ng/mL] | hPD-1 blockade assay IC50 [3] [ng/mL] | EC50 [4] [ng/mL] | hPD-1 blockade assay IC50 [5] [ng/mL] | EC50 [6] [ng/mL] | fold difference in EC50 values (RiboMab-19-0233 against RiboMab-19-0202) [7] [fold]
MAB-19-0208 (antibody, human IgG1, V domains shown, Chimeric rabbit/human antibody, human IgG1 constant parts with L234A and L235A (LALA); also called chimeric anti-PD-1 MAB-19-0208) VH: QSVEESGGRLVTPGTPLTLTCTVSGFSLSRYYISWVRQAPGKGLEWIGSFYADSGTTWYATWVKGRFTFSTASSTTVDLKMTSPTTEDTATYFCARNSGDAQFNIWGPGTLVTVSS VL: AAVLTQTPSPVSAAVGGTVSISCQSSESVYNKNQLCWYQQKPGQRPKLLIYDASTLASGVPSRFSGSGSGTQFTLTISDVQSDAAATYYCAGGYSVTSDTTFGGGTEVVVR | 13.9 | 4 | 870 |  |  |  | 
MAB-19-0217 (antibody, human IgG1, V domains shown, Chimeric rabbit/human antibody, human IgG1 constant parts with L234A and L235A (LALA); also called chimeric anti-PD-1 MAB-19-0217) VH: QSVEESGGRLVTPGTPLTLTCTVSGFSLSRYYMTWVRQAPGKGLEWIGIIYPDTGTTWYASWVKGRFTFSKTSSTTVDLKMTSPTTEDTATYFCARSTTDAQFNIWGPGTLVTVSS VL: AAVLTQTPSPVSAAVGGTVSISCQSSENVYTDNQLCWYQQKPGQRPKLLIYDASTLASGVPSRFSGSGSGTQFTLTISGVQSDDAATYYCAGGYSTTSDTTFGGGTEVVVK | 6.3 | 9.2 | 720 |  |  |  | 
MAB-19-0598 (antibody, IgG1, V domains shown, Recombinant humanized hIgG1-LALA antibody) VH: QVQLVESGGDVVKPGRSLRLSCKASGIDFSSVYYMCWVRQAPGKGLEWIACIYVGSSGVSYYATWAKGRFTISRDTSTSTLFLQMNSLRAGDTATYYCARAGYVGAVYVTLTRLDLWGQGTLVTVSS VL: DIQMTQSPSSLSASVGGTVTITCQSSQSIYTNNDLAWYQQKPGQPPKLLIYDASKLASGVPSRFSGSGSGTQFTLTISSLQSEDAATYYCLGGYDDDADNAFGGGTEVVVK |  |  |  | 5.7 | 368 | 8.8 | 
MAB-19-0583 (antibody, IgG1, V domains shown, Recombinant humanized hIgG1-LALA antibody) VH: QVQLVESGGDVVKPGRSLRLSCKASGIDFSSVYYMCWVRQAPGKGLEWIACIYVGSSGVSYYATWAKGRFTISRDTSTSTLFLQMNSLRAGDTATYYCARAGYVGAVYVTLTRLDLWGQGTLVTVSS VL: DVVMTQSPSTVSASVGDRVTLTCQSSQSIYTNNDLAWYQQKPGQPPKLLIYDASKLASGVPDRFSGSGSGTDFTLTISSLQADDFATYYCLGGYDDDADNAFGQGTKVEIK |  |  |  | 3.6 | 188 | 7.5 | 
MAB-19-0594 (antibody, IgG1, V domains shown, Recombinant humanized hIgG1-LALA antibody) VH: EVQLEESGGGLVKPGGSLRLSCAASGIDFSSVYYMCWVRQAPGKGLEWVSCIYVGSSGVSYYATWAKGRFTISRDNSKNTLYLQMNSLRAEDTAVYYCARAGYVGAVYVTLTRLDLWGRGTLVTVSS VL: DIQMTQSPSSLSASVGGTVTITCQSSQSIYTNNDLAWYQQKPGQPPKLLIYDASKLASGVPSRFSGSGSGTQFTLTISSLQSEDAATYYCLGGYDDDADNAFGGGTEVVVK |  |  |  | 9.5 | 311 | 14.6 | 
MAB-19-0223 (antibody, human IgG1, V domains shown, Chimeric rabbit/human antibody, human IgG1 constant parts with L234A and L235A (LALA); also called chimeric anti-PD-1 MAB-19-0223) VH: QEHLVESGGGLVQPEGSLTLTCKASGIDFSDTYWICWVRQPPGKGLEWIGCIGIGGSGSTYYAGWAKGRFTISKTSSTTVTLQMTTLTDADTATYFCATEIPYFNVWGPGTLVTVSS VL: AQVLTQTPSSVSAAVGGTVTINCQSSQSVYNKNWLAWYQQKPGQPPKLLIYDASKLTSGVPSRFKGSGSGTQFTLTISGVQSDDAATYYCQGTYDVNGWLVAFGGGAEVVVK | 7 | 6.6 | 913 |  |  |  | 
MAB-19-0202 (antibody, V domains shown, Chimeric rabbit/human antibody: rabbit variable regions cloned N-terminal of human IgG1 / kappa constant parts with L234A and L235A (LALA)) VH: QSVEESGGRLVTPGTPLTLTCTVSGFSLYSYNMGWVRQAPGKGLEYIGIISGGTIGHYASWAKGRFTISKTSSTTVDLKMTSLTTEDTATYFCARAFYDDYDYNVWGPGTLVTVSS VL: AAVLTQTPSPVSAAVGGTVTISCQSSQSVYGNNQLSWYQQKPGQPPKLLIYQASKLETGVPSRFKGSGSGTQFTLTISDLESDDAATYYCAGGYSSSSDTTFGGGTEVVVK |  | 3.5 | 324 | 0.5 | 56 | 4 | 
MAB-19-0603 (antibody, IgG1, V domains shown, Recombinant humanized hIgG1-LALA antibody) VH: QVQLVESGGGLVQPGTSLRLSCSVSGFSLYSYNMGWVRQAPGKGLEYIGIISGGTIGHYASWAKGRFTISRDTSKTTLYLQMNSLTTEDTATYFCARAFYDDYDYNVWGPGTLVTVSS VL: DIVMTQSPSSLSASVGDRVTITCQSSQSVYGNNQLSWYQQKPGKAPKLLIYQASKLETGVPSRFSGSGSGTDFTLTISSLQPEDFATYYCAGGYSSSSDTTFGGGTKVVIK |  |  |  | 2.8 | 85 | 3.3 | 
MAB-19-0618 (antibody, IgG1, V domains shown, Recombinant humanized hIgG1-LALA antibody) VH: QVQLVESGGGLVQPGTSLRLSCSVSGFSLYSYNMGWVRQAPGKGLEYIGIISGGTIGHYASWAKGRFTISRDTSKTTLYLQMNSLTTEDTATYFCARAFYDDYDYNVWGPGTLVTVSS VL: AIQLTQSPSSLSASVGGTVTITCQSSQSVYGNNQLSWYQQKPGQPPKLLIYQASKLETGVPSRFRGSGSGTQFTLTISSLQSEDFATYYCAGGYSSSSDTTFGGGTEVVVK |  |  |  | 1.7 | 57 | 8 | 
MAB-19-0608 (antibody, IgG1, V domains shown, Recombinant humanized hIgG1-LALA antibody) VH: QVQLVESGGGLVQPGTSLRLSCSVSGFSLYSYNMGWVRQAPGKGLEYIGIISGGTIGHYASWAKGRFTISRDTSKTTLYLQMNSLTTEDTATYFCARAFYDDYDYNVWGPGTLVTVSS VL: DIQMTQSPSTLSASVGDRVTITCQSSQSVYGNNQLSWYQQKPGKAPKLLIYQASKLETGVPSRFSGSGSGTQFTLTISSLQPDDFASYYCAGGYSSSSDTTFGQGTKVEIK |  |  |  | 2.8 | 63 | 7.7 | 
MAB-19-0613 (antibody, IgG1, V domains shown, Recombinant humanized hIgG1-LALA antibody) VH: QVQLVESGGGLVQPGTSLRLSCSVSGFSLYSYNMGWVRQAPGKGLEYIGIISGGTIGHYASWAKGRFTISRDTSKTTLYLQMNSLTTEDTATYFCARAFYDDYDYNVWGPGTLVTVSS VL: DIQMTQSPSSLSASVGDRVTITCQSSQSVYGNNQLSWYQKKPGQAPKLLIYQASKLETGVPSRFSGSGSGTDFTLTISSLQPEDFATYYCAGGYSSSSDTTFGPGTKVDIK |  |  |  | 1.2 | 93 | 4.4 | 
MAB-19-0233 (antibody, human IgG1, V domains shown, Chimeric rabbit/human antibody, human IgG1 constant parts with L234A and L235A (LALA)) VH: QSLEESGGDLVKPGASLTLTCKASGIDFSSVYYMCWVRQAPGKGLEWIACIYVGSSGVSYYATWAKGRFTISKTSSTTVTLQMTSLTAADTATYFCARAGYVGAVYVTLTRLDLWGQGTLVTVSS VL: AAVLTQTPSPVSAAVGGTVTISCQSSQSIYTNNDLAWYQQKPGQPPKLLIYDASKLASGVPSRFSGSGSGTQFTLTISGVQSDDAATYYCLGGYDDDADNAFGGGTEVVVK | 16.8 | 6.3 | 657 | 2.4 |  | 7.2 | 
RiboMab-19-0233 (antibody, V domains shown, Tested as HEK293T/17 supernatant, concentration not determined) VH: QSLEESGGDLVKPGASLTLTCKASGIDFSSVYYMCWVRQAPGKGLEWIACIYVGSSGVSYYATWAKGRFTISKTSSTTVTLQMTSLTAADTATYFCARAGYVGAVYVTLTRLDLWGQGTLVTVSS VL: AAVLTQTPSPVSAAVGGTVTISCQSSQSIYTNNDLAWYQQKPGQPPKLLIYDASKLASGVPSRFSGSGSGTQFTLTISGVQSDDAATYYCLGGYDDDADNAFGGGTEVVVK |  |  |  |  |  |  | ~2.5
